This assay addresses T1, C−反応性タンパク(CRP), ヒトCRP抗原 (human) (UniProt P02741).
T1 sequence (looked up): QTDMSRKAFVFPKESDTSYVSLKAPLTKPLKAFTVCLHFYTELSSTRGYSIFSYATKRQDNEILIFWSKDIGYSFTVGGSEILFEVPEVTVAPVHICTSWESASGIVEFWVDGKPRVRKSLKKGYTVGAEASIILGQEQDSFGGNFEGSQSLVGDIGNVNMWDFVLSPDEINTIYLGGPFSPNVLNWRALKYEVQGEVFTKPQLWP
In words: sandwich immunochromatography, His20 as capture and as gold-colloid label, read by eye after 15 min.

B1: 抗CRPscFv抗体No.20 (His-tagged scFv, His20) (scFv, not shown: small tags and cut ends)
scFv: MAQVKLPESGAELVKPGASVKLSCTPSGFNIKDTYIHWVRQRPGQGLEWIGRIDPANGHTRYAPKFQGKATLTADASSNTAYLHLSSLTSEDTAVYYCPRIVWYSGGYAMDYWGQGTTVTVSSGGGGSGGGGSGGGGSDIELTQSPSSMYASLGERVTITCKASQDINSYLSWFQQKPGKSPKTLIYRANRLVDGVPSRFSGSGSGQDYSLTISSLKYEDMGIYYCLQYDEFPLTFGGGTKLEIKRAA
Molecule B1 displayed a lowest detectable CRP concentration of 1 ng/mL.

Values taken from JP2008058208A.
